Data as given in paper PMC10164584, “Structural basis for the tRNA-dependent activation of the terminal complex of selenocysteine synthesis in humans” (Nucleic Acids Research, 2023).

Tests used:
human SepSecS = biological target: T1, human SepSecS (Homo sapiens, UniProt Q9HD40, V491A); details: holo SepSecS without bound tRNA; P-loop site near active site
T1 sequence (Q9HD40 1-501 V491A): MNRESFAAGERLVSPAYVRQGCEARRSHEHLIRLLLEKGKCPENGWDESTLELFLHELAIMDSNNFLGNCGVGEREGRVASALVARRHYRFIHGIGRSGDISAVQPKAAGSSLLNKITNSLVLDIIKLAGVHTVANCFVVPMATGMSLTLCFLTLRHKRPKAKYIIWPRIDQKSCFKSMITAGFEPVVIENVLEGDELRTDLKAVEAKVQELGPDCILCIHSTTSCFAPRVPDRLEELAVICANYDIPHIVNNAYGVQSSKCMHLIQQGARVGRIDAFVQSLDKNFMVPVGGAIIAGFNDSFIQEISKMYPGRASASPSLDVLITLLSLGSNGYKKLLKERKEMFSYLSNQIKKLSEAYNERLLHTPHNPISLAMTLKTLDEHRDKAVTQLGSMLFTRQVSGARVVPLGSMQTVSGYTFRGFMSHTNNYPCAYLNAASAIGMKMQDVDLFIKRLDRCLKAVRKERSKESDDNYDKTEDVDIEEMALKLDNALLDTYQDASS

Q399A SepSecS (human) = assay: MST; details: MST: 20 mM HEPES pH 8.0, 150 mM NaCl, 5% glycerol, 0.05% Tween-20, 0.4 mg/ml BSA, room temperature, 5 nM labeled SepSecS; van't Hoff series 24-34 C
SepSecS E37L (human) = assay: MST; details: MST: 20 mM HEPES pH 8.0, 150 mM NaCl, 5% glycerol, 0.05% Tween-20, 0.4 mg/ml BSA, room temperature, 5 nM labeled SepSecS; van't Hoff series 24-34 C
SepSecS F396V (human) = assay: MST; details: MST: 20 mM HEPES pH 8.0, 150 mM NaCl, 5% glycerol, 0.05% Tween-20, 0.4 mg/ml BSA, room temperature, 5 nM labeled SepSecS; van't Hoff series 24-34 C
SepSecS H30A (human) = assay: MST; details: MST: 20 mM HEPES pH 8.0, 150 mM NaCl, 5% glycerol, 0.05% Tween-20, 0.4 mg/ml BSA, room temperature, 5 nM labeled SepSecS; van't Hoff series 24-34 C
SepSecS K38M (human) = assay: MST; details: MST: 20 mM HEPES pH 8.0, 150 mM NaCl, 5% glycerol, 0.05% Tween-20, 0.4 mg/ml BSA, room temperature, 5 nM labeled SepSecS; van't Hoff series 24-34 C
SepSecS R26A (human) = assay: MST; details: MST: 20 mM HEPES pH 8.0, 150 mM NaCl, 5% glycerol, 0.05% Tween-20, 0.4 mg/ml BSA, room temperature, 5 nM labeled SepSecS; van't Hoff series 24-34 C
SepSecS R33A (human) = assay: MST; details: MST: 20 mM HEPES pH 8.0, 150 mM NaCl, 5% glycerol, 0.05% Tween-20, 0.4 mg/ml BSA, room temperature, 5 nM labeled SepSecS; van't Hoff series 24-34 C
SepSecS R398A (human) = assay: MST; details: MST: 20 mM HEPES pH 8.0, 150 mM NaCl, 5% glycerol, 0.05% Tween-20, 0.4 mg/ml BSA, room temperature, 5 nM labeled SepSecS; van't Hoff series 24-34 C
SepSecS S27A (human) = assay: MST; details: MST: 20 mM HEPES pH 8.0, 150 mM NaCl, 5% glycerol, 0.05% Tween-20, 0.4 mg/ml BSA, room temperature, 5 nM labeled SepSecS; van't Hoff series 24-34 C
SepSecS S393A (human) = assay: MST; details: MST: 20 mM HEPES pH 8.0, 150 mM NaCl, 5% glycerol, 0.05% Tween-20, 0.4 mg/ml BSA, room temperature, 5 nM labeled SepSecS; van't Hoff series 24-34 C
SepSecS T397V (human) = assay: MST; details: MST: 20 mM HEPES pH 8.0, 150 mM NaCl, 5% glycerol, 0.05% Tween-20, 0.4 mg/ml BSA, room temperature, 5 nM labeled SepSecS; van't Hoff series 24-34 C
SepSecS WT (human) = assay: MST; details: MST: 20 mM HEPES pH 8.0, 150 mM NaCl, 5% glycerol, 0.05% Tween-20, 0.4 mg/ml BSA, room temperature, 5 nM labeled SepSecS; van't Hoff series 24-34 C

Compound	X-ray crystallography, 2.25 A (human SepSecS)	Kd (Q399A SepSecS (human)) [nM]	Kd (SepSecS E37L (human)) [nM]	Kd (SepSecS F396V (human)) [nM]	Kd (SepSecS H30A (human)) [nM]	Kd (SepSecS K38M (human)) [nM]	Kd (SepSecS R26A (human)) [nM]	Kd (SepSecS R33A (human)) [nM]	Kd (SepSecS R398A (human)) [nM]	Kd (SepSecS S27A (human)) [nM]	Kd (SepSecS S393A (human)) [nM]	Kd (SepSecS T397V (human)) [nM]	Kd (SepSecS WT (human)) [nM]
O=P(O)(O)O [phosphate ion]	structure of holo SepSecS possessed a phosphate ion bound to the P-loop	–	–	–	–	–	–	–	–	–	–	–	–
tRNASec WT (unacylated)	–	567	166	44.1	166	1670	516	28.9	2530	133	197	62.8	134
